In this series the test system is gus gene. Nature of the series: Histochemical analysis of β-glucuronidase activity in transformed plants. The format is in vivo, Arabidopsis thaliana. To be noted: for expression of gus gene in cotyledons: 2-day germination seedlings; for induction of the promoter construct by ABA: gus reporter, ABA treatment; for expression of gus gene in different development stages and organs: several independent lines, all studied organs. An excerpt: When the construct including the complete segment of the small allele was employed, the expression of the gus gene in the cotyledons of 2-day germination seedlings was also viewed. However, and differing from the region 0 to −400, the expression of gus gene was very intense in the leaves and roots of the young seedlings (FIG. 20).
The inventive plants from A. thaliana that resulted resistant to kanamycin in the selection and PCR reaction of were subjected to histochemical β-glucuronidase activity test. The tested embryos and organs were washed with buffer 50 mM Na2HPO4 pH 7. They were then transferred to a solution 50 mM Na2HPO4 pH 7.0, 1% Triton X-100, 2 mM X-gluc (5-bromine-4-chlorine-3-indolil β-D-glucuronide), subjected to vacuum for 5 minutes and incubated at 37° C. in darkness between 2 and 12 hours. After incubation they were fixed in 10% formaldehide solution, 50% ethanol and 5% ascetic acid for 10 minutes at room temperature. Formaldehide was removed, ethanol 70% was added and conserved at 4° C.
The histochemical analysis was made in 2, 10 and 20 day-old seedlings grown in Petri dishes containing MS medium and 0.8% agar and adult plants grown in flowerpots containing soil.

B1: construct 0 to −400: Hahb-4 promoter fragment, nucleotides 805 to 1221 of SEQ ID NO 3, cloned into pBI101.3 driving gus (nucleic acid, listed as Helianthus annuus)
DNA: GGATGCGAACGAGTGGTTTAACCATACTTTTAAGAGGTGCGATCGGAAATTTTACCTATAAAATACACTAAAAAAGTTCCAAGGGTCCACCCACCCCTTAACCTAAGTCCGCCTTTGTCTGGATCACGTGAAACATCAGGTCTCTCCCTTACCAGTCCAGCTACGACTCATTGACAAAATATCAAAACCATATGATTTTGAGTTTTATCTCAACCGAAAGTGACATCATGACAGAGAATCGACATAACCAAAACGTGTAAACGTACAACTCACCATTGCGTTGAAAAGGACAAAACAGGTAGGATTCTTGTCAAATTCAACGCGTACACCTGTGCTTCATCTAAACCCCATACTTTAAGAACCTTTATAAAGACCACTCACTATATATACACATATATAATATCACTTATCAAACCC
modifications: cloned in pBI101.3 driving gus; promoter (1)..(1221) Large allele
Regarding B1, the “expression of gus gene in cotyledons” value was “enough to drive the expression of gene gus” and the “induction of the promoter construct by ABA” value (“induction” below) was “capable of being induced by ABA”. The “expression of gus gene in young seedlings” value (10 germination days) was “not detectable”.

B2: region 0 to −300: promoter fragment, nucleotides 904 to 1221 of SEQ ID NO 3, in pBI101.3 (nucleic acid, listed as Helianthus annuus)
DNA: AACCTAAGTCCGCCTTTGTCTGGATCACGTGAAACATCAGGTCTCTCCCTTACCAGTCCAGCTACGACTCATTGACAAAATATCAAAACCATATGATTTTGAGTTTTATCTCAACCGAAAGTGACATCATGACAGAGAATCGACATAACCAAAACGTGTAAACGTACAACTCACCATTGCGTTGAAAAGGACAAAACAGGTAGGATTCTTGTCAAATTCAACGCGTACACCTGTGCTTCATCTAAACCCCATACTTTAAGAACCTTTATAAAGACCACTCACTATATATACACATATATAATATCACTTATCAAACCC
modifications: in pBI101.3; promoter (1)..(1221) Large allele
In the case of B2, the “induction” value was “not induced by ABA”; the “expression of gus gene in different development stages and organs” value was “not expressed”.

B3: construct including the complete segment of the small allele: promoting region from 0 to −1015 (small allele, SEQ ID NO 10) cloned in pBI101.3 driving gus (nucleic acid, listed as Helianthus annuus)
DNA: GATCCAATTGGACCACCTGGCACATCGTATCTTATCTCTTTTGTCGTTTCCAACACACCACAACACACCTACAAACGTGTCAATTCACACTTCACCAATTTCATTTCCTTTTAGTCAATCATATTAAAAGTAGTAGCCCCCACCCCCATTTGTTACCTACCATTTCCCACTTTAATAATCACCCACGCTATGTCCACTTGTACTTTTGTTTGCACACAACTCTTCCCATAAAATATCAAACCAAATTTTTTTTAATGGAAAACAAATACTTCAAATGCACTATTGGTGAAATTCACCACATCAGAATACACCCGTCTCTACTCATCTACTGGCCAACGAATCTTCACGGGGGAAACCCTCACTCGTCTACTGGGACTACTGGCGCTTCAAAATGGACTACTGACAAAATTCACCACATCGGGATACACTTGTCTACTGCGGTGAGGTAAAATCCGCCGCTCAGCTCAATGATCGAACTAGCGATCGCCACCCACTCACCTTGTCTCCCATCATCACCAGGTGCCGCCAAAACAAAATGTTGGGGGCGGGAATTGAACCTAGGTCCAGTGGCGCACCCATGAATTTTTTTTCTAGGGATGCGAACGAGTGATTTAACCATACTTTTAAGAGGTGCGATCGGAAATTTTACCTATAAAATATACTAAAAAAATTTCAAGGGTCCGCCCACCCACCCCTTAACCTAAGTCCGCCTCTGCCTGGATCACGTGAAACATCAGGTCTCTCTCTTACCAGTTCACCTACAACTCATTGACAAAATATCAAAACCATATGATTTTGAGTTTTATCTCAACCGAAAGTGACATCATGACAGAGAATCGACATAACCAAAACGTGTAAACGTACAACTCACCATTGCGTTGAAAAGGACAAAACAGGTAGGATTCTTGTCAAATTCAACGCGTACACCTGTGCTTCATCTAAACCCCATACTTTAAGAACCTTTATAAAGACCACTCACTATATATACACATATATAATATCACTTATCAAACCC
modifications: cloned in pBI101.3 driving gus
On to B3, for which the “expression of gus gene in cotyledons” value was “also viewed”. In addition, where the note is “reproductive stage”, the “expression of gus gene during the reproductive stage” value is “not detected any expression”. Besides, the “expression of gus gene in leaves and roots” value (young seedlings) is listed as “very intense”.

B4: region 0 to −200: promoter fragment, nucleotides 1011 to 1221 of SEQ ID NO 3, in pBI101.3 (nucleic acid, listed as Helianthus annuus)
DNA: ATCTCAACCGAAAGTGACATCATGACAGAGAATCGACATAACCAAAACGTGTAAACGTACAACTCACCATTGCGTTGAAAAGGACAAAACAGGTAGGATTCTTGTCAAATTCAACGCGTACACCTGTGCTTCATCTAAACCCCATACTTTAAGAACCTTTATAAAGACCACTCACTATATATACACATATATAATATCACTTATCAAACCC
modifications: in pBI101.3; promoter (1)..(1221) Large allele
For B4, the “induction” value is reported as “not induced by ABA”; the “expression of gus gene in different development stages and organs” value was “not expressed”.

(Values after patent US8283521B2, “Transcription factor gene induced by water deficit conditions and abscisic acid from Helianthus annuus, promoter and transgenic plants” (Bioceres S.A., priority 2003, dated 2012).)
